Experiments:
Assay in all cases: ELISA
[1] = molecular target: SARS-CoV-2 spike S1B domain (receptor binding domain) (SARS-CoV-2 Wuhan-Hu-1, UniProt P0DTC2)
[2] = molecular target: SARS-CoV spike S1B domain (receptor binding domain) (SARS-CoV Urbani, UniProt P59594)
[3] = molecular target: WIV16 spike receptor binding domain (S1B domain) (SARS-like coronavirus WIV16, strain)

Measured: binding result

B1: human monoclonal antibody 47D11 (antibody, V domains shown)
VH: QVQLQESGPGLVKPSETLSLTCSVSGGSISSHYWSWIRQPPGKGLEWIGYIYYSGSTNHNPSLKSRVTISVDTSKNQFSLKLSSVTAADTAVYYCARGVLLWFGEPIFEIWGQGTMVTVSS
VL: EIVMTQSPATLSVSPGERATLSCRASQSVSSSLAWYQQKPGQAPRLLIYGASTRAPGIPARFSGSGSGTEFTLTISSLQSEDFAVYYCQQYNNWPLTFGGGTKVEI
binds: all assays above

— publication doi:10.1101/2020.09.30.318261 (bioRxiv, 2020)
